Source: US20150344540A1, “NOVEL GLP-1 RECEPTOR AGONISTS WITH CHOLESTEROL EFFLUX ACTIVITY” (NOVO NORDISK A/S, priority 2012, published 2015)
Where no end group is shown, it is not given here. [ ]: non-standard residue; d: D form. Aib = CC(C)(N)C(=O)O

B1: [Aib8,Glu23,Val25,Gln30,His31,Glu34,Lys35,Leu36,Lys37]-GLP-1-(7-37)-peptidyl-Glu-Phe-Leu amide (peptide)
peptide: H[Aib]EGTFTSDVSSYLEGEAVKEFIQHLVEKLKEFL-NH2
modifications: N-terminus assumed
SMILES: CC[C@H](C)[C@H](NC(=O)[C@H](Cc1ccccc1)NC(=O)[C@H](CCC(=O)O)NC(=O)[C@H](CCCCN)NC(=O)[C@@H](NC(=O)[C@H](C)NC(=O)[C@H](CCC(=O)O)NC(=O)CNC(=O)[C@H](CCC(=O)O)NC(=O)[C@H](CC(C)C)NC(=O)[C@H](Cc1ccc(O)cc1)NC(=O)[C@H](CO)NC(=O)[C@H](CO)NC(=O)[C@@H](NC(=O)[C@H](CC(=O)O)NC(=O)[C@H](CO)NC(=O)[C@@H](NC(=O)[C@H](Cc1ccccc1)NC(=O)[C@@H](NC(=O)CNC(=O)[C@H](CCC(=O)O)NC(=O)C(C)(C)NC(=O)[C@@H](N)Cc1c[nH]cn1)[C@@H](C)O)[C@@H](C)O)C(C)C)C(C)C)C(=O)N[C@@H](CCC(N)=O)C(=O)N[C@@H](Cc1c[nH]cn1)C(=O)N[C@@H](CC(C)C)C(=O)N[C@H](C(=O)N[C@@H](CCC(=O)O)C(=O)N[C@@H](CCCCN)C(=O)N[C@@H](CC(C)C)C(=O)N[C@@H](CCCCN)C(=O)N[C@@H](CCC(=O)O)C(=O)N[C@@H](Cc1ccccc1)C(=O)N[C@@H](CC(C)C)C(N)=O)C(C)C
B2: [Aib8,Glu23,Val25,Leu33,Glu34,Lys35,Aib36,Lys37]-GLP-1-(7-37)-peptidyl-Glu-Phe-Leu amide (peptide)
peptide: H[Aib]EGTFTSDVSSYLEGEAVKEFIAWLLEK[Aib]KEFL-NH2
modifications: N-terminus assumed
SMILES: CC[C@H](C)[C@H](NC(=O)[C@H](Cc1ccccc1)NC(=O)[C@H](CCC(=O)O)NC(=O)[C@H](CCCCN)NC(=O)[C@@H](NC(=O)[C@H](C)NC(=O)[C@H](CCC(=O)O)NC(=O)CNC(=O)[C@H](CCC(=O)O)NC(=O)[C@H](CC(C)C)NC(=O)[C@H](Cc1ccc(O)cc1)NC(=O)[C@H](CO)NC(=O)[C@H](CO)NC(=O)[C@@H](NC(=O)[C@H](CC(=O)O)NC(=O)[C@H](CO)NC(=O)[C@@H](NC(=O)[C@H](Cc1ccccc1)NC(=O)[C@@H](NC(=O)CNC(=O)[C@H](CCC(=O)O)NC(=O)C(C)(C)NC(=O)[C@@H](N)Cc1c[nH]cn1)[C@@H](C)O)[C@@H](C)O)C(C)C)C(C)C)C(=O)N[C@@H](C)C(=O)N[C@@H](Cc1c[nH]c2ccccc12)C(=O)N[C@@H](CC(C)C)C(=O)N[C@@H](CC(C)C)C(=O)N[C@@H](CCC(=O)O)C(=O)N[C@@H](CCCCN)C(=O)NC(C)(C)C(=O)N[C@@H](CCCCN)C(=O)N[C@@H](CCC(=O)O)C(=O)N[C@@H](Cc1ccccc1)C(=O)N[C@@H](CC(C)C)C(N)=O
B3: [Aib8,Glu23,Val25,Glu34,Lys35,Aib36,Leu37]-GLP-1-(7-37)-peptidyl-Ser-Phe-Leu amide (peptide)
peptide: H[Aib]EGTFTSDVSSYLEGEAVKEFIAWLVEK[Aib]LSFL-NH2
modifications: N-terminus assumed
SMILES: CC[C@H](C)[C@H](NC(=O)[C@H](Cc1ccccc1)NC(=O)[C@H](CCC(=O)O)NC(=O)[C@H](CCCCN)NC(=O)[C@@H](NC(=O)[C@H](C)NC(=O)[C@H](CCC(=O)O)NC(=O)CNC(=O)[C@H](CCC(=O)O)NC(=O)[C@H](CC(C)C)NC(=O)[C@H](Cc1ccc(O)cc1)NC(=O)[C@H](CO)NC(=O)[C@H](CO)NC(=O)[C@@H](NC(=O)[C@H](CC(=O)O)NC(=O)[C@H](CO)NC(=O)[C@@H](NC(=O)[C@H](Cc1ccccc1)NC(=O)[C@@H](NC(=O)CNC(=O)[C@H](CCC(=O)O)NC(=O)C(C)(C)NC(=O)[C@@H](N)Cc1c[nH]cn1)[C@@H](C)O)[C@@H](C)O)C(C)C)C(C)C)C(=O)N[C@@H](C)C(=O)N[C@@H](Cc1c[nH]c2ccccc12)C(=O)N[C@@H](CC(C)C)C(=O)N[C@H](C(=O)N[C@@H](CCC(=O)O)C(=O)N[C@@H](CCCCN)C(=O)NC(C)(C)C(=O)N[C@@H](CC(C)C)C(=O)N[C@@H](CO)C(=O)N[C@@H](Cc1ccccc1)C(=O)N[C@@H](CC(C)C)C(N)=O)C(C)C
B4: [Aib8,Glu23,Val25,Lys30,Glu34,Lys35,Aib36,Lys37]-GLP-1-(7-37)-peptidyl-Glu-Phe-Leu amide (peptide)
peptide: H[Aib]EGTFTSDVSSYLEGEAVKEFIKWLVEK[Aib]KEFL-NH2
modifications: N-terminus assumed
SMILES: CC[C@H](C)[C@H](NC(=O)[C@H](Cc1ccccc1)NC(=O)[C@H](CCC(=O)O)NC(=O)[C@H](CCCCN)NC(=O)[C@@H](NC(=O)[C@H](C)NC(=O)[C@H](CCC(=O)O)NC(=O)CNC(=O)[C@H](CCC(=O)O)NC(=O)[C@H](CC(C)C)NC(=O)[C@H](Cc1ccc(O)cc1)NC(=O)[C@H](CO)NC(=O)[C@H](CO)NC(=O)[C@@H](NC(=O)[C@H](CC(=O)O)NC(=O)[C@H](CO)NC(=O)[C@@H](NC(=O)[C@H](Cc1ccccc1)NC(=O)[C@@H](NC(=O)CNC(=O)[C@H](CCC(=O)O)NC(=O)C(C)(C)NC(=O)[C@@H](N)Cc1c[nH]cn1)[C@@H](C)O)[C@@H](C)O)C(C)C)C(C)C)C(=O)N[C@@H](CCCCN)C(=O)N[C@@H](Cc1c[nH]c2ccccc12)C(=O)N[C@@H](CC(C)C)C(=O)N[C@H](C(=O)N[C@@H](CCC(=O)O)C(=O)N[C@@H](CCCCN)C(=O)NC(C)(C)C(=O)N[C@@H](CCCCN)C(=O)N[C@@H](CCC(=O)O)C(=O)N[C@@H](Cc1ccccc1)C(=O)N[C@@H](CC(C)C)C(N)=O)C(C)C
B5: [Aib8,Glu23,Val25,Glu34,Lys35,Val36,Lys37]-GLP-1-(7-37)-peptidyl-Glu-Phe-Leu amide (peptide)
peptide: H[Aib]EGTFTSDVSSYLEGEAVKEFIAWLVEKVKEFL-NH2
modifications: N-terminus assumed
SMILES: CC[C@H](C)[C@H](NC(=O)[C@H](Cc1ccccc1)NC(=O)[C@H](CCC(=O)O)NC(=O)[C@H](CCCCN)NC(=O)[C@@H](NC(=O)[C@H](C)NC(=O)[C@H](CCC(=O)O)NC(=O)CNC(=O)[C@H](CCC(=O)O)NC(=O)[C@H](CC(C)C)NC(=O)[C@H](Cc1ccc(O)cc1)NC(=O)[C@H](CO)NC(=O)[C@H](CO)NC(=O)[C@@H](NC(=O)[C@H](CC(=O)O)NC(=O)[C@H](CO)NC(=O)[C@@H](NC(=O)[C@H](Cc1ccccc1)NC(=O)[C@@H](NC(=O)CNC(=O)[C@H](CCC(=O)O)NC(=O)C(C)(C)NC(=O)[C@@H](N)Cc1c[nH]cn1)[C@@H](C)O)[C@@H](C)O)C(C)C)C(C)C)C(=O)N[C@@H](C)C(=O)N[C@@H](Cc1c[nH]c2ccccc12)C(=O)N[C@@H](CC(C)C)C(=O)N[C@H](C(=O)N[C@@H](CCC(=O)O)C(=O)N[C@@H](CCCCN)C(=O)N[C@H](C(=O)N[C@@H](CCCCN)C(=O)N[C@@H](CCC(=O)O)C(=O)N[C@@H](Cc1ccccc1)C(=O)N[C@@H](CC(C)C)C(N)=O)C(C)C)C(C)C
B6: [Aib8,Glu23,Val25,Gln30,Glu34,Lys35,Aib36,Lys37]-GLP-1-(7-37)-peptidyl-Glu-Phe-Leu amide (peptide)
peptide: H[Aib]EGTFTSDVSSYLEGEAVKEFIQWLVEK[Aib]KEFL-NH2
modifications: N-terminus assumed
SMILES: CC[C@H](C)[C@H](NC(=O)[C@H](Cc1ccccc1)NC(=O)[C@H](CCC(=O)O)NC(=O)[C@H](CCCCN)NC(=O)[C@@H](NC(=O)[C@H](C)NC(=O)[C@H](CCC(=O)O)NC(=O)CNC(=O)[C@H](CCC(=O)O)NC(=O)[C@H](CC(C)C)NC(=O)[C@H](Cc1ccc(O)cc1)NC(=O)[C@H](CO)NC(=O)[C@H](CO)NC(=O)[C@@H](NC(=O)[C@H](CC(=O)O)NC(=O)[C@H](CO)NC(=O)[C@@H](NC(=O)[C@H](Cc1ccccc1)NC(=O)[C@@H](NC(=O)CNC(=O)[C@H](CCC(=O)O)NC(=O)C(C)(C)NC(=O)[C@@H](N)Cc1c[nH]cn1)[C@@H](C)O)[C@@H](C)O)C(C)C)C(C)C)C(=O)N[C@@H](CCC(N)=O)C(=O)N[C@@H](Cc1c[nH]c2ccccc12)C(=O)N[C@@H](CC(C)C)C(=O)N[C@H](C(=O)N[C@@H](CCC(=O)O)C(=O)N[C@@H](CCCCN)C(=O)NC(C)(C)C(=O)N[C@@H](CCCCN)C(=O)N[C@@H](CCC(=O)O)C(=O)N[C@@H](Cc1ccccc1)C(=O)N[C@@H](CC(C)C)C(N)=O)C(C)C
B7: [Aib8,Glu23,Val25,Leu33,Glu34,Lys35,Aib36,Lys37]-GLP-1-(7-37)-peptidyl-Glu-Trp-Leu amide (peptide)
peptide: H[Aib]EGTFTSDVSSYLEGEAVKEFIAWLLEK[Aib]KEWL-NH2
modifications: N-terminus assumed
SMILES: CC[C@H](C)[C@H](NC(=O)[C@H](Cc1ccccc1)NC(=O)[C@H](CCC(=O)O)NC(=O)[C@H](CCCCN)NC(=O)[C@@H](NC(=O)[C@H](C)NC(=O)[C@H](CCC(=O)O)NC(=O)CNC(=O)[C@H](CCC(=O)O)NC(=O)[C@H](CC(C)C)NC(=O)[C@H](Cc1ccc(O)cc1)NC(=O)[C@H](CO)NC(=O)[C@H](CO)NC(=O)[C@@H](NC(=O)[C@H](CC(=O)O)NC(=O)[C@H](CO)NC(=O)[C@@H](NC(=O)[C@H](Cc1ccccc1)NC(=O)[C@@H](NC(=O)CNC(=O)[C@H](CCC(=O)O)NC(=O)C(C)(C)NC(=O)[C@@H](N)Cc1c[nH]cn1)[C@@H](C)O)[C@@H](C)O)C(C)C)C(C)C)C(=O)N[C@@H](C)C(=O)N[C@@H](Cc1c[nH]c2ccccc12)C(=O)N[C@@H](CC(C)C)C(=O)N[C@@H](CC(C)C)C(=O)N[C@@H](CCC(=O)O)C(=O)N[C@@H](CCCCN)C(=O)NC(C)(C)C(=O)N[C@@H](CCCCN)C(=O)N[C@@H](CCC(=O)O)C(=O)N[C@@H](Cc1c[nH]c2ccccc12)C(=O)N[C@@H](CC(C)C)C(N)=O
B8: [Aib8,Glu23,Val25,Lys30,Glu34,Lys35,Leu36,Lys37]-GLP-1-(7-37)-peptidyl-Glu-Phe-Leu amide (peptide)
peptide: H[Aib]EGTFTSDVSSYLEGEAVKEFIKWLVEKLKEFL-NH2
modifications: N-terminus assumed
SMILES: CC[C@H](C)[C@H](NC(=O)[C@H](Cc1ccccc1)NC(=O)[C@H](CCC(=O)O)NC(=O)[C@H](CCCCN)NC(=O)[C@@H](NC(=O)[C@H](C)NC(=O)[C@H](CCC(=O)O)NC(=O)CNC(=O)[C@H](CCC(=O)O)NC(=O)[C@H](CC(C)C)NC(=O)[C@H](Cc1ccc(O)cc1)NC(=O)[C@H](CO)NC(=O)[C@H](CO)NC(=O)[C@@H](NC(=O)[C@H](CC(=O)O)NC(=O)[C@H](CO)NC(=O)[C@@H](NC(=O)[C@H](Cc1ccccc1)NC(=O)[C@@H](NC(=O)CNC(=O)[C@H](CCC(=O)O)NC(=O)C(C)(C)NC(=O)[C@@H](N)Cc1c[nH]cn1)[C@@H](C)O)[C@@H](C)O)C(C)C)C(C)C)C(=O)N[C@@H](CCCCN)C(=O)N[C@@H](Cc1c[nH]c2ccccc12)C(=O)N[C@@H](CC(C)C)C(=O)N[C@H](C(=O)N[C@@H](CCC(=O)O)C(=O)N[C@@H](CCCCN)C(=O)N[C@@H](CC(C)C)C(=O)N[C@@H](CCCCN)C(=O)N[C@@H](CCC(=O)O)C(=O)N[C@@H](Cc1ccccc1)C(=O)N[C@@H](CC(C)C)C(N)=O)C(C)C

Each binder was assayed against human GLP-1 receptor (human, UniProt P43220) (assay: cell-based or functional assay).

First: B1
Second: B2
The “CRE luciferase EC50, 0% HSA” value of the first is 2.6-fold lower: 0.077 nM for the first, 0.203 nM for the second.

Going from B3 to B4, the “CRE luciferase EC50, 0% HSA” value falls from 0.872 nM to 0.103 nM (8.5-fold).

Going from B5 to B6, the “CRE luciferase EC50, 0% HSA” value falls from 0.474 nM to 0.083 nM (5.7-fold).

B7 and B8 are within 1.5-fold of each other in “CRE luciferase EC50, 0% HSA” value: 0.659 nM for the first, 0.465 nM for the second.

First: B1
Second: B2
The “CRE luciferase EC50, 1% HSA” value of the first is 3-fold lower: 0.025 nM for the first, 0.076 nM for the second.

Going from B3 to B4, the “CRE luciferase EC50, 1% HSA” value falls from 0.368 nM to 0.043 nM (8.6-fold).

Compared with B5, B6 is 9.1-fold lower in “CRE luciferase EC50, 1% HSA” value: 0.381 nM for the first, 0.042 nM for the second.

B7 and B8 are within 1.5-fold of each other in “CRE luciferase EC50, 1% HSA” value: 0.32 nM for the first, 0.275 nM for the second.
